From the supplement of paper PMC10567573

B1: DCTD (parent)
chain: VKGCSMYVALFPCNECAKLIIQAG

Variants of: B1
Assay: protein stability index of a GFP-peptide fusion (GPS, HEK-293T) (PSI 1-6); higher = more stable
Conditions: c terminus: a fixed tail appended
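Also: lentivirally expressed fusions sorted by FACS into six bins by GFP to DsRed ratio, PSI derived from sequencing read proportions per bin multiplied by bin number.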

| Variant | protein stability index |
| --- | --- |
| VKGCSMLVALFPCNECAKLIIQAG | 4.45 |
| VKGCSMTVALFPCNECAKLIIQAG | 1.91 |
| VKGCSMWVALFPCNECAKLIIQAG | 2.92 |
| VKGCSMMVALFPCNECAKLIIQAG | 4.09 |
| VKGCSMYVALFPCNECAKLIVQAG | 2.14 |
| VKGCSMYVALFPCNECAKLIDQAG | 3.77 |
| VKGCSMYVALFPCNECAKLIWQAG | 2.72 |
| VKGCSMYVALFPCNECAKLILQAG | 1.76 |
| VKGCSMYVALFPCNECAKLISQAG | 2.24 |
| VKGCSMYVALFPCNECAKLIEQAG | 1.31 |
| VKGCSMYVALFPCNECAKLITQAG | 1.83 |
| VKGCSMYVALFPCNECAKLHIQAG | 2.4 |
| VKGCSMYVALFPCNECAKLIIQGG | 2.31 |
| VKGCSMYVALFPCNECAKLIIQPG | 2.84 |
| VKGCSMYVALFPCNECAKLIIQEG | 2.7 |
| VKGCSMYVALFPCNECAKLIIQLG | 5.75 |
| VKGCSMYWALFPCNECAKLIIQAG | 1.9 |
| VKGCSMYMALFPCNECAKLIIQAG | 2.92 |
| VKGCSMYTALFPCNECAKLIIQAG | 2.19 |
| VKGCSMYSALFPCNECAKLIIQAG | 2.3 |
| VKGCSMYKALFPCNECAKLIIQAG | 3.21 |
| VKGCSMYAALFPCNECAKLIIQAG | 2.64 |
| VKGCSMYHALFPCNECAKLIIQAG | 2.37 |
| VKGCSMYQALFPCNECAKLIIQAG | 4.51 |

| Variant | protein stability index |
| --- | --- |
| VKGCSMYPALFPCNECAKLIIQAG | 2.22 |
| VKGCSMYNALFPCNECAKLIIQAG | 1.49 |
| VKGCSMYEALFPCNECAKLIIQAG | 1.75 |
| VKGCSMYLALFPCNECAKLIIQAG | 1.94 |
| VKGCSMYDALFPCNECAKLIIQAG | 1.62 |
| VKGCSMYYALFPCNECAKLIIQAG | 3.08 |
| VKGCSMYCALFPCNECAKLIIQAG | 1.9 |
| VKGCSMYGALFPCNECAKLIIQAG | 1.28 |
| VKGCSMYFALFPCNECAKLIIQAG | 3.62 |
| VKGCSMYVALFPPNECAKLIIQAG | 1.7 |
| VKGCSMYVALFPENECAKLIIQAG | 2.59 |
| VKGCSMYVALFPCNECACLIIQAG | 4.05 |
| VKGCSMYVALFPCNECAILIIQAG | 1.99 |
| VKGCSMYVALFPCNECAHLIIQAG | 2.55 |
| VKGCSMYVALFPCNECASLIIQAG | 4.23 |
| VKGCSMYVALFPCNECALLIIQAG | 1.05 |
| VKGCSMYVALFPCNECAWLIIQAG | 1 |
| VKGCSMYVALFPCNECAVLIIQAG | 4.91 |
| VKGCSMYVAAFPCNECAKLIIQAG | 2.48 |
| VKGCSMYVAPFPCNECAKLIIQAG | 3.06 |
| VKGCSMYVAQFPCNECAKLIIQAG | 3.35 |
| VKGCSMYVASFPCNECAKLIIQAG | 2.2 |
| VKGCSMYVALFPCNECAKFIIQAG | 3.88 |
| VKGCSMYVALFPCNECAKEIIQAG | 5.26 |

| Variant | protein stability index |
| --- | --- |
| VKGCSMYVALFPCNECAKTIIQAG | 2.23 |
| VKGCSMYVALFPCNECAKDIIQAG | 2.4 |
| VKGCSMYVALFPCNECAKCIIQAG | 3.04 |
| VKGCSMYVALFPCNECAKWIIQAG | 2.99 |
| VKGCSMYVALFPCNECAKMIIQAG | 2.14 |
| VKGCSMYVALFPCNECAKLIIQAH | 3.84 |
| VKGCSMYVALFPCNECAKLIIQAK | 1.76 |
| VKGCSMYVALFPCNECAKLIIQAN | 2.86 |
| VKGCSMYVALFPCNECAKLIIQAV | 2.98 |
| VKGCSMYVALFPCNECAKLIIQAT | 3.17 |
| VKGCSMYVALFPCNECAKLIIQAE | 2.98 |
| VKGCSMYVALFPCNECAKLIIQAA | 2 |
| VKGCSMYVALFNCNECAKLIIQAG | 3.57 |
| VKGCSMYVALFQCNECAKLIIQAG | 1.81 |
| VKGCSMYVALFVCNECAKLIIQAG | 4.55 |
| VKGCSMYVALFRCNECAKLIIQAG | 2.9 |
| VKGCSMYVALFTCNECAKLIIQAG | 2.86 |
| VKGCSMYVALFGCNECAKLIIQAG | 2.57 |
| VKGCSMYVALFPCNEMAKLIIQAG | 3.57 |
| VKGCSMYVALFPCNENAKLIIQAG | 5.28 |
| VKGCSMYVALFPCNEKAKLIIQAG | 5.31 |
| VKGCSMYVALFPCPECAKLIIQAG | 2.04 |
| VKGCSMYVALFPCMECAKLIIQAG | 2.9 |
| VKGCSMYVALFPCFECAKLIIQAG | 2.99 |

| Variant | protein stability index |
| --- | --- |
| VKGCSMYVALFPCKECAKLIIQAG | 1.92 |
| VKGCSMYVGLFPCNECAKLIIQAG | 3.16 |
| VKGCSMYVLLFPCNECAKLIIQAG | 3.68 |
| VKGCSMYVCLFPCNECAKLIIQAG | 2.79 |
| VKGCSMYVWLFPCNECAKLIIQAG | 1.94 |
| VKGCSMYVFLFPCNECAKLIIQAG | 3.38 |
| VKGCSMYVALFPCNQCAKLIIQAG | 2.62 |
| VKGCSMYVALFPCNGCAKLIIQAG | 3.97 |
| VKGCSMYVALFPCNVCAKLIIQAG | 1.31 |
| VKGCSMYVALFPCNICAKLIIQAG | 3.06 |
| VKGCSMYVALFPCNNCAKLIIQAG | 2.17 |
| VKGCSMYVALFPCNWCAKLIIQAG | 4.68 |
| VKGCSMYVALFPCNHCAKLIIQAG | 3.15 |
| VKGCSMYVALCPCNECAKLIIQAG | 3.11 |
| VKGCSMYVALYPCNECAKLIIQAG | 2.95 |
| VKGCSMYVALSPCNECAKLIIQAG | 2.83 |
| VKGCSMYVALDPCNECAKLIIQAG | 4.47 |
| VKGCSMYVALFPCNECAKLIIPAG | 2.51 |
| VKGCSMYVALFPCNECAKLIIEAG | 3.39 |
| VKGCSMYVALFPCNECIKLIIQAG | 3.08 |
| VKGCSMYVALFPCNECNKLIIQAG | 3.32 |
| VKGCSMYVALFPCNECQKLIIQAG | 3.48 |
